Experimental findings from the supplement of paper PMC9170038 are described below.

The subject of the data set is MS2 coat protein. Briefly: apparent KD of MS2 coat protein; designed switch direction (-1 OFF switch, 1 ON switch): 1; higher = weaker reporter binding. Summed up:
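The reported apparent KD is a per-design median over clusters, from curve fits of normalised cluster fluorescence. Protein titrations used SNAP-549-labelled MS2 coat protein, doubled from 0.7 or 1.5 nM to 3 µM, in Tris-HCl pH 7.5 buffer with KCl, MgCl2, BSA, DTT, tRNA and Tween-20, with no input, 200 uM small-molecule ligand, or an oligonucleotide input. The RNA switches were transcribed on Illumina chips by stalled E. coli RNA polymerase.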

[1] abbreviates: Eterna round: R95, input ligand: FMN 200 uM.
[2] abbreviates: Eterna round: R95, input ligand: microRNA oligo, concentration not stated.
Where [3] appears, read: Eterna round: R95, input ligand: none.
The mark [4] stands for this setting: input ligand: microRNA oligo, concentration not stated.

Turning to “AACAAUCUAUCUGAGGAUAUCAUGAAAUAAACAUGAGGAUCACCCAUGUGCAGGAAAACUGCAUAUGAGAAGGCAGAUAGUUUGA [salish99_ss2_r3_056] (puzzle: Same State 2)”, the “apparent KD of MS2 coat protein” value is, setting by setting: under setting [1], 47.5 nM; under setting [2], 716 nM; under setting [3], 855 nM.
On the same counts, the results for “AACAAUCUAUCUGAGGAUAUCAUGAAAUAAACAUGAGGAUCACCCAUGUGCAGGAAAACUGCAUAUGAGAAGGCAUAUAGAUUGA [salish99_ss2_r3_052] (puzzle: Same State 2)” are 63.7 nM, 465 nM and 1560 nM.
Turning to “AACAAUCUAUCUGAGGAUAUCAUGAAAUAAACAUGAGGAUCACCCAUGUGCAGGAAAACUGCAUUUGAGAAGGCAGAUAGAUUGA [salish99_ss2_r3_048] (puzzle: Same State 2)”, the “apparent KD of MS2 coat protein” value was 14.6 nM under setting [1], 106 nM under setting [2] and 67.2 nM under setting [3].
For “AACAAUCUAUCUGAGGAUAUCAUGAAAUAAACAUGAGGAUCACCCAUGUGCAGGAAAAUUGCAUAUGAGAAGGCAGAUAGAUUGA [salish99_ss2_r3_044] (puzzle: Same State 2)”, the “apparent KD of MS2 coat protein” value under setting [1] came out at 37.9 nM, the “apparent KD of MS2 coat protein” value under setting [2] turned out to be 771 nM and the “apparent KD of MS2 coat protein” value under setting [3] was 669 nM.
In the case of “AACAAUCUAUCUGAGGAUAUCAUGUCAAAGACAUGAGGAUCACCCAUGUUGCAGGAAACUGCUCAUGAGAAGGCAGAUAGAUUGA [SS2: 1129] (Eterna round: R96, puzzle: Same State 2)”, the “apparent KD of MS2 coat protein” value (input ligand: FMN 200 uM) worked out at 41 nM, the “apparent KD of MS2 coat protein” value under setting [4] amounted to 329 nM and the “apparent KD of MS2 coat protein” value (input ligand: none) was 385 nM.
Regarding “AACAUGAGGAUCACCCAUGUGGAAUACUGAAGCAGCUCAGGGAAGGAUAUGGUUGACACCCUCGACCAGAAGGUCCAAAUUAAA [Onarar] (Eterna round: R96, puzzle: Same State NG 3)”, the “apparent KD of MS2 coat protein” value by setting is: (input ligand: FMN 200 uM) 63.3 nM; under setting [4], 98.2 nM; (input ligand: none) 121 nM.
Take “AACUUACUAUCUCAGGAUAUCAUGUCAAAGACAUGAGGAUCACCCAUGUACCAGGAAACUGGUUAUGAGAAGGGAGAUAGUAAGA [Mat - Same State 2 - Mod - D49] (puzzle: Same State 2)”: the “apparent KD of MS2 coat protein” value worked out at 167 nM under setting [1], 128 nM under setting [2] and 611 nM under setting [3].
On to “AAGAAACAUGAGGAUCACCCAUGUAAGAUAAACACAGGAUAUGCGAAUAAAAUAAAUAAAGCAGAAGGGUGAAGAA [Mat - Same State 1 - Tesla mod - D150] (Eterna round: R96, puzzle: Same State 1)”, for which the “apparent KD of MS2 coat protein” value under setting [4] is 38.9 nM.
For the sequence “AAGUGGAACUGAGGAUAUGGCAUCCGAACAUGAGGAUCACCCAUGUAGUUAGGAAAAGAACGGAGCCAGAAGGUAGGACUCCGC [Soqube] (Eterna round: R96, puzzle: Same State NG 2)”, the “apparent KD of MS2 coat protein” value is 10.6 nM (input ligand: FMN 200 uM), 9.65 nM under setting [4] and 15 nM (input ligand: none).
In the case of “AAUAUACAUGAGGAUCACCCAUGUUAGUAAAUGACAGGAUAUGCAAUAAAUAAAUAAUAAGCAGAAGGGUCUAAUA [JMF's solution 1] (puzzle: Same State 1)”, the “apparent KD of MS2 coat protein” value by setting is: under setting [1], 13.7 nM; under setting [2], 14.2 nM; under setting [3], 16 nM.
Regarding “AAUCGUUUGAUAGGAUAUCGCUAUACAUGAGGAUCACCCAUGUUUACCACGCUGGUUUUUCGUACCGAGAAGGAUUCUGAUGAU [JL JR sub007 mod 4] (Eterna round: R96, puzzle: Same State NG 2)”, the “apparent KD of MS2 coat protein” value by setting is: (input ligand: FMN 200 uM) 36 nM; under setting [4], 25.4 nM; (input ligand: none) 36.1 nM.
As to “AAUUAAGAUCAAGGAUAUCACGUCGAUUAGACGUGAGAAGGUGAUCCAUACAUGAGGAUCACCCAUGUAUAACAUGAAUUAAUU [SSNG1/8-B2] (Eterna round: R96, puzzle: Same State NG 1)”, the “apparent KD of MS2 coat protein” value reads like this: (input ligand: FMN 200 uM) 395 nM; under setting [4], 626 nM; (input ligand: none) 1580 nM.
On the same counts, the results for “AAUUAAGAUCGAGGAUAUCACGUCGAUUAGACGUGAGAAGGCGAUCAUAACAUGAGGAUCACCCAUGUAUUACAUGAAUUAAUU [SSNG1/4-B2] (Eterna round: R96, puzzle: Same State NG 1)” are 33.4 nM, 26.7 nM and 36.6 nM.
With “AAUUAAGAUCUAGGAUAUCACGUCGAAUAGACGUGAGAAGGAGAUCAUAACAUGAGGAUCACCCAUGUAUUACAUGAAUUAAUU [SSNG1/6-B1] (Eterna round: R96, puzzle: Same State NG 1)”, the “apparent KD of MS2 coat protein” value reads like this: (input ligand: FMN 200 uM) 28 nM; under setting [4], 21.6 nM; (input ligand: none) 28.4 nM.
With “AAUUAAUUAAUUAAUAUACAUGAGGAUCACCCAUGUAAGAUCAAGGAUAUCAGCUCGAAUAGAGCUGAGAAGGUGAUCACAUGU [SSNG3/16-A1] (Eterna round: R96, puzzle: Same State NG 3)”, under setting [4], the “apparent KD of MS2 coat protein” value was 251 nM.
On to “ACAAGCUUUUUAGGAGAGAAAGGAGGGAAACAUGAGGAUCACCCAUGUAUGGUAGUGAAUAGAGGAACUCGUCUUAU [JR_SHM208A_Sub080] (puzzle: Sensor for hsa-mir-208a)”, for which the “apparent KD of MS2 coat protein” value runs as follows: under setting [1], 90.5 nM; under setting [2], 25.6 nM; under setting [3], 152 nM.
As for “ACAGCGAAACAUGAGGAUCACCCAUGUAAAGAAUAGGUGAAUUGUUGCUCGUCUUGAAGAGAAGAGAAGAAGGAGAG [Victory 1] (puzzle: Sensor for hsa-mir-208a version 2)”, the “apparent KD of MS2 coat protein” value was determined as 192 nM under setting [1], 101 nM under setting [2] and 180 nM under setting [3].
In the case of “ACAUAGGUUUCAGGAUAUGGGUAAAUUCCCUACAUGAGGAUCACCCAUGUCCGUAGGGAUAACAUCCAGAAGGGAAGCCACAUA [MOD3 Eternabot Solution 1 (Score 87.5)] (Eterna round: R96, puzzle: Same State NG 2)”, the “apparent KD of MS2 coat protein” value was 175 nM (input ligand: FMN 200 uM), 144 nM under setting [4] and 221 nM (input ligand: none).
On the same counts, the results for “ACAUGACAUGACAUGAGGAUCACCCAUGUGAGGAUCACCCGGGAGGAUAUAGCCCAUGUGGAUCACUAGAAGGCCCUGAGGAUC [Same State NG3 S1] (Eterna round: R96, puzzle: Same State NG 3)” are 36.4 nM, 39.5 nM and 49.5 nM.
On to “ACAUGAGACAUAGGAUAUCUUGUACCUACAUGUGACAUGAGGAUCACCCAUGUGGUAAGUAUGAGAGAGAAGGAUGAGAUAUGU [Equivalence 48 - Jieux - Same State NG 2] (Eterna round: R96, puzzle: Same State NG 2)”, for which the “apparent KD of MS2 coat protein” value was 17.5 nM (input ligand: FMN 200 uM), 17.9 nM under setting [4] and 20.6 nM (input ligand: none).
As for “ACAUGAGACAUAGGAUAUGUUGUACCUACAUGUGACAUGAGGAUCACCCAUGUGGUAAGUAUGAGACAGAAGGAUGAGAUAUGU [Equivalence 30 - Jieux - Same State NG 2] (Eterna round: R96, puzzle: Same State NG 2)”, the “apparent KD of MS2 coat protein” value reads like this: (input ligand: FMN 200 uM) 27.5 nM; under setting [4], 43.4 nM; (input ligand: none) 73 nM.
